Assay results as given in US20080305097.

Tested on: stromal cell-derived factor 1 (SDF-1)

cathepsin K (CTK)
SDF-1 cleavage by CTK (SDS-PAGE and western blot, time course of minutes): The results obtained show fast and site specific SDF-1 cleavage by CTK
